Reference: publication PMC6818130

Experiments:
[1] = Western blot, steady-state level, Tet-induced 293 cells; conditions: glycan lost; control: wild-type GILT
[2] = glycan lost
[3] = confocal immunofluorescence co-localisation with LAMP1; conditions: glycan lost; control: wild-type GILT

Gamma-interferon-inducible lysosomal thiol reductase (GILT, IFI30): N63A
decreases: expression_or_secretion [1] | other: restriction of viral entry [2] | localisation_or_trafficking [3]

Gamma-interferon-inducible lysosomal thiol reductase (GILT, IFI30): N95A
decreases: expression_or_secretion [1] | other: restriction of viral entry [2] | localisation_or_trafficking [3]

Gamma-interferon-inducible lysosomal thiol reductase (GILT, IFI30): N108A
decreases: expression_or_secretion [1] | other: restriction of viral entry [2] | localisation_or_trafficking [3]
